Measurements as given in paper PMC3543382, “Elements of Transcriptional Machinery Are Compatible among Plants and Mammals” (PLoS ONE, 2013).

Target: RelA-ECFP (human, UniProt Q04206 1-551)
Assay: cell-based or functional assay

Chain of RelA-ECFP (Q04206 whole entry): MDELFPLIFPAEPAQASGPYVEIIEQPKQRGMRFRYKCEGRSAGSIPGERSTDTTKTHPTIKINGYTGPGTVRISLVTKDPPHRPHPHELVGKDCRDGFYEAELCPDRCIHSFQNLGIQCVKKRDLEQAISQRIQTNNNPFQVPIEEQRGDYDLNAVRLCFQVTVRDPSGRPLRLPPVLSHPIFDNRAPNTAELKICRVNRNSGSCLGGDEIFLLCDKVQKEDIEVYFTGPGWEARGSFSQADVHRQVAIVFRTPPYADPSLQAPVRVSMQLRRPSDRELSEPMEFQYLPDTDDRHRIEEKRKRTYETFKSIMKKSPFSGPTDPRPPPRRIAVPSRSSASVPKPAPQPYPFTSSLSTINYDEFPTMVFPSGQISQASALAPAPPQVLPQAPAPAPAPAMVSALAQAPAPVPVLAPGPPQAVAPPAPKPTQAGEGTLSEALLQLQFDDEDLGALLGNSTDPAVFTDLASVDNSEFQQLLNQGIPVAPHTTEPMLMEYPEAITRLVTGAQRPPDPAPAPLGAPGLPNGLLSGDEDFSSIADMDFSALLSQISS

transactivation of the IκBα-promoter EYFP reporter by the p50/RelA heterodimer in the presence of IκB (untagged proteins) in Arabidopsis protoplasts, EYFP/ECFP emission relative to the basal activity: 3.5 fold
B1: IκB-EYFP (natural protein, human, UniProt P25963 1-317, looked up)
chain: MFQAAERPQEWAMEGPRDGLKKERLLDDRHDSGLDSMKDEEYEQMVKELQEIRLEPQEVPRGSEPWKQQLTEDGDSFLHLAIIHEEKALTMEVIRQVKGDLAFLNFQNNLQQTPLHLAVITNQPEIAEALLGAGCDPELRDFRGNTPLHLACEQGCLASVGVLTQSCTTPHLHSILKATNYNGHTCLHLASIHGYLGIVELLVSLGADVNAQEPCNGRTALHLAVDLQNPDLVSLLLKCGADVNRVTYQGYSPYQLTWGRPSTRIQQQLGQLTLENLQMLPESEDEESYDTESEFTEFTEDELPYDDCVFGGQRLTL
